Test results reported in the supplement of paper PMC10567573.

B1: SCNN1D (parent)
chain: FYRLYQDLETHRLPCTSRCPRPCR

Variants of: B1
Test: protein stability index of a GFP-peptide fusion (GPS, HEK-293T) (PSI 1-6); higher = more stable
Conditions: c terminus: a fixed tail appended
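Further: lentivirally expressed fusions sorted by FACS into six bins by GFP to DsRed ratio, PSI derived from sequencing read proportions per bin multiplied by bin number.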

Protein stability index: each site, then its substitutions
Y5: R 2.02, M 2.29, C 2.13, W 2.08, F 1.98, H 2.92, N 3.29, K 2.6, D 3.64, L 3.17, T 2.8, E 3.17, S 2.57, V 1.88, Q 2.81, P 3.49, I 1.76, G 3.16, A 4.45
D7: M 1.39, T 2.09, C 1.72, S 1.98, Y 1.66, W 3, R 2.89, I 3.21, V 1.98, A 1.32, F 2.22, Q 1.48, H 1.5, N 1.89, P 2.44, L 1.76, E 2.3, G 2.3, K 2.08
T10: Y 1.6, D 2.82, Q 2.3, C 1.94, R 2.88, P 2.03, L 2.29, A 2.27, H 2.34, E 2.31, M 1.86, K 2.47, N 2.4, F 1.21, S 1.6, W 2.05, G 2.19, I 2.44, V 1.52
T16: K 1.9, F 1.58, P 1.11, Q 1.98, I 1.62, H 1.49, C 1.66, E 2.5, Y 1.6, V 1.94, M 2.1, L 1.82, D 2.79, S 1.82, R 1.46, N 2.21, G 1.93, A 1.98, W 1.51
E9: A 2.06, R 1.58, W 1.08, I 2.06, G 1.57, H 2.25, F 1.46, M 2.87, V 2.29, T 1.65, D 2.99, Q 1.83, C 1.66, L 2.8, P 2.05, S 1.94, K 2.38, N 1.6, Y 1.5
Q6: Y 1.52, T 1.72, H 1.96, D 2.52, K 1.35, M 1.91, S 2.23, C 1.68, F 1.79, A 2.21, R 1.96, G 1.7, N 2.28, P 1.38, W 3.33, V 1.65, I 2.31, E 3.63, L 1.54
C15: P 1.85, W 1.75, R 2.3, T 2, F 2.71, H 2.28, I 2.48, D 2.24, A 2.07, M 1.73, Q 1.76, Y 1.8, S 2.64, G 2.47
L8: I 2.41, Y 1.53, C 2.08, E 2.73, G 2.97, F 2.58, N 3.07, H 2.97, V 2.16, P 2.75, A 2.38, R 2.22, W 1.7, T 2.09, Q 2.11, K 2.38, S 2.47, M 2.02, D 2.79
L4: E 4.13, F 2.04, Q 3.24, R 2.49, W 2.59, A 3.02, C 1.56, N 3.29, G 3.51, P 3.47, S 3.46, T 2.79, H 3.23, K 3.68, M 2.34, D 2.69, I 2.41, Y 2.14
H11: C 2.62, K 1.96, P 2, E 2.31, A 2.31, F 1.64, R 2.48, Q 2.37, T 2.79, V 1.98, I 1.39, Y 1.97, L 1.95, W 2.05, D 2.24, S 2.21, N 1.93, M 1.74
F1: T 3.46, R 2.92, S 3.2, Q 2.71, W 2.91, Y 2.4, P 3.59, V 2.13
R18: H 1.91, P 1.74, V 1.4, D 1.78, F 1.79, S 1.94, C 1.51, Y 1.78, M 2.29, L 1.86, G 2.54, T 2.15, I 1.15, N 2.18
R12: K 2.37, Y 1.78, E 2.5, P 2.64, F 2.41, N 2.22, S 3.51, C 2.3, Q 2.47, G 2.47, V 1.93, D 2.4, A 3.03, I 1.42, H 3.03, L 2.05, T 2.1, W 2, M 2.33
P14: W 1.57, T 1.76, R 2.09, Q 1.94, G 2.3, K 1.89, A 2.01, E 2.39, H 1.97, I 1.53, L 3.27, F 1.79, V 1.47, S 2.44, D 2.06, C 1.44, Y 1.45, N 1.96, M 1.6
C19: S 2.09, A 1.94, H 1.84, V 2.1, N 3.89, E 2.66, K 1.96, P 2.03, T 3.26, M 2.06, I 2.64, R 2.21, D 2.03, G 2.32, F 2.65, W 3.18, Q 2.59, Y 1.88, L 2.68
R3: T 2.65, V 2.04, Q 2.71, K 2.58, E 2.63, F 2.32, I 1.95, H 2.38, L 2, N 2.22, S 2.42, D 2.71, C 1.98, Y 1.66, A 2.32, P 3.04, G 2.65, M 2.09
L13: W 2.21, F 2.33, Q 2.03, T 2.97, Y 1.72, M 2.24, N 2.23, A 2.42, H 2.38, S 2.67, K 2.63, C 1.85, E 3.25, I 2.38, D 2.19, R 3.39, G 2.66
Y2: T 1.81, A 2.69, P 2.85, H 1.59, K 2.41, C 1.55, V 2.97, I 2.27, F 2.22, S 2.49, W 2.75, N 3.63, D 3.56, R 2.58, Q 1.98, G 2.74, M 2.4, L 1.55, E 4.26
S17: Q 2.45, C 1.65, A 2.46, I 1.85, P 2.46, K 1.96, T 2.61, N 2.15, Y 2.09, R 2.56, W 1.02, F 1.75, L 1.5, V 4.43, G 1.96, M 1.86, H 2.33, E 2.43
